Results published in paper PMC12354898, “Collagen VI microfibril structure reveals mechanism for molecular assembly and clustering of inherited pathogenic mutations” (Nature Communications, 2025).

Target: T1, mini-collagen VI α1 chain, ColVIα1^C1C2 (human, UniProt P12109 566-1028)
T1 construct: human collagen VI α1 chain, UniProt P12109 aa 566-1028: nine Gly-X-Y triplets, coiled coil region, C1 and C2 vWA domains; Synthetic gene cloned into pHLSec with AgeI and XhoI; one chain of the disulphide-bonded heterotrimer α1α2α3^C1C2; also called α1 chain of α1α2α3^C1C2; source: Expi293F, co-transfected with the other two chains, secreted; in conditioned media, and purified (Strep-Tactin XT, …)
T1 sequence (looked up): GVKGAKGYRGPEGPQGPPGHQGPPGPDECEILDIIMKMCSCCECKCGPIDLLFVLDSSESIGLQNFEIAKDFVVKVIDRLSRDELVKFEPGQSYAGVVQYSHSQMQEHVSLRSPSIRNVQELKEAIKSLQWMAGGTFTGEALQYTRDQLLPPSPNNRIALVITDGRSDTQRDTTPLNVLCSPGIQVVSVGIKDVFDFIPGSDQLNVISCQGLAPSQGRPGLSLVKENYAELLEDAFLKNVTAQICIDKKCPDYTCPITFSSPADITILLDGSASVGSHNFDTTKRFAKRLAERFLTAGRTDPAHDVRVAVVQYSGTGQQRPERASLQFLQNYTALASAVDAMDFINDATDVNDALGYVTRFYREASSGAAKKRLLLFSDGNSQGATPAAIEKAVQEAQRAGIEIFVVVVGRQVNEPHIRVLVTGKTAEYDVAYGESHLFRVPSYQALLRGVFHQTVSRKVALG
Test: pull-down; three chains co-expressed in Expi293F; sequential affinity steps from conditioned media (Strep-Tactin XT for Twin-Strep α2, Ni-Sepharose for His α1, anti-FLAG M2 for α3; Fig. 5f: Twin-strep then His-tag); eluates on reduced and non-reduced SDS-PAGE
Conditions: partners not purified

B1: mini-collagen VI α2 chain, ColVIα2^C1C2 (domain or fragment, human, UniProt P12110 564-1019, looked up)
chain: GEPGPRGPRGVPGPEGEPGPPGDPGLTECDVMTYVRETCGCCDCEKRCGALDVVFVIDSSESIGYTNFTLEKNFVINVVNRLGAIAKDPKSETGTRVGVVQYSHEGTFEAIQLDDERIDSLSSFKEAVKNLEWIAGGTWTPSALKFAYDRLIKESRRQKTRVFAVVITDGRHDPRDDDLNLRALCDRDVTVTAIGIGDMFHEKHESENLYSIACDKPQQVRNMTLFSDLVAEKFIDDMEDVLCPDPQIVCPDLPCQTELSVAQCTQRPVDIVFLLDGSERLGEQNFHKARRFVEQVARRLTLARRDDDPLNARVALLQFGGPGEQQVAFPLSHNLTAIHEALETTQYLNSFSHVGAGVVHAINAIVRSPRGGARRHAELSFVFLTDGVTGNDSLHESAHSMRKQNVVPTVLALGSDVDMDVLTTLSLGDRAAVFHEKDYDSLAQPGFFDRFIRWIC
notes: human collagen VI α2 chain, UniProt P12110 aa 564-1019: nine Gly-X-Y triplets, coiled coil region, C1 and C2 vWA domains; Synthetic gene cloned into pHLSec with AgeI and XhoI; density for two N-linked glycans on this chain in the cryoEM map; also called α2 chain of α1α2α3^C1C2; source: Expi293F, co-transfected with the other two chains, secreted; in conditioned media, and purified (Strep-Tactin …)
**Q.** Does B1 bind?
**A.** Result: binds
